Drawing on US20030152959, “Method of using estrogen-related receptor alpha (ERRalpha) status to determine prognosis, treatment strategy and predisposition to breast cancer, and method of using ERRalpha as a therapeutic target for the treatment of breast cancer” (published 2003), this text covers activity and binding signal for 23 molecules.

Series [1] deals with T1, ERRα1 (estrogen-related receptor alpha 1, NR3B1) (Homo sapiens, UniProt P11474 P11474:1-423).
T1 sequence: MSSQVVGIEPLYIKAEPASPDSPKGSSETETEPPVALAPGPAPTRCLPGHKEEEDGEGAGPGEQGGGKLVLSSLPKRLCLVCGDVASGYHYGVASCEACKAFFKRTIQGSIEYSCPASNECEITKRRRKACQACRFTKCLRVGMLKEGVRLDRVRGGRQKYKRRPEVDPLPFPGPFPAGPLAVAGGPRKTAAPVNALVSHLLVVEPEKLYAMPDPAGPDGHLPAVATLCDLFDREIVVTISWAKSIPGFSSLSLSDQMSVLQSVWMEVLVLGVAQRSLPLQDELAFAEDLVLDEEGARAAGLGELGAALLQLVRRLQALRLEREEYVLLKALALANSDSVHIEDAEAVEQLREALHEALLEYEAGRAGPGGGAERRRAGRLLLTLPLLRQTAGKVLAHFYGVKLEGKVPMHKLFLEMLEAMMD
The series is described as follows: cell_activity; HeLa, 3xERE-TK-luc reporter. The settings on record: tags:

Series [2] deals with T1, ERRα1 (estrogen-related receptor alpha …). Description: competition; competition EMSA, COS extract. Particulars: tags: COS / COS-M6 whole-cell extract, pcDNA3.1-hERRα1 or pRSV-hERRα1. (Mobility shift assays separate free from complexed probe on a gel.)

B1: Consensus palindromic ERE (dsDNA)
DNA 1: TAAGCTTAGGTCACAGTGACCTAAGCTTA
DNA 2: TAAGCTTAGGTCACTGTGACCTAAGCTTA
On to B1, for which the activity in series [1] came to 2.5 fold activation.

B2: IGF2 site 3 (dsDNA)
DNA 1: GGTGGACGCTGCTGAAGGTGAGCGAGACCCCGG
DNA 2: CCGGGGTCTCGCTCACCTTCAGCAGCGTCCACC
B2 came in with a binding signal in series [2] of 0.06 RBA vs reference ERRE.

B3: Prolactin site 1 (dsDNA)
DNA 1: TGTCCATTTTCTTCTAGGTCAACCCCAATGGTA
DNA 2: TACCATTGGGGTTGACCTAGAAGAAAATGGACA
In turn, B3 showed a binding signal in series [2] of 0.06 RBA vs reference ERRE.

B4: hMDM2 site (dsDNA)
DNA 1: GGGAGTTCAGGGTAAAGGTCACGGGGCCGGGGC
DNA 2: GCCCCGGCCCCGTGACCTTTACCCTGAACTCCC
The molecule B4 gave a binding signal in series [2] of 0.35 RBA vs reference ERRE.

B5: IGF1R site (dsDNA)
DNA 1: GCTCCGGCTCGCTGAAGGTCACAGCCGAGGCGA
DNA 2: TCGCCTCGGCTGTGACCTTCAGCGAGCCGGAGC
On to B5, for which the binding signal in series [2] turned out to be 0.36 RBA vs reference ERRE.

B6: ErbB2 ERRE (dsDNA)
DNA 1: AAAGGAACTTTCCCAAGGTCACAGAGCTGAGCT
DNA 2: AGCTCAGCTCTGTGACCTTGGGAAAGTTCCTTT
In series [2], B6 came in with a binding signal of 1.01 RBA vs reference ERRE.

B7: BRCA2 site (dsDNA)
DNA 1: AGAACATCCCTTTTAAGGTCAGAACAAAGGTAT
DNA 2: ATACCTTTGTTCTGACCTTAAAAGGGATGTTCT
Molecule B7 showed a binding signal in series [2] of 0.08 RBA vs reference ERRE.

B8: IGF2 site 2 (dsDNA)
DNA 1: CTGTCGGCAGGAACAAGGTCACCCCTTGGCGTT
DNA 2: AACGCCAAGGGGTGACCTTGTTCCTGCCGACAG
Turning to B8, the binding signal in series [2] is 0.25 RBA vs reference ERRE.

B9: Prolactin site 3 (dsDNA)
DNA 1: CCTCAGAGTGGCTCAGGGTCAGAGAAGGTAGAG
DNA 2: CTCTACCTTCTCTGACCCTGAGCCACTCTGAGG
In series [2], B9 displayed a binding signal of 0.07 RBA vs reference ERRE.

B10: ERβ promoter site (dsDNA)
DNA 1: GGTGCTCCCACTTAGAGGTCACGCGCGGCGTCG
DNA 2: CGACGCCGCGCGTGACCTCTAAGTGGGAGCACC
B10 showed a binding signal in series [2] of 0.54 RBA vs reference ERRE.

B11: Cathepsin D site (dsDNA)
DNA 1: TGGCATATTGGGTGAAGGTCAAGGGAGTGGCTT
DNA 2: AAGCCACTCCCTTGACCTTCACCCAATATGCCA
Molecule B11 returned a binding signal in series [2] of 0.49 RBA vs reference ERRE.

B12: BRCA1 site (dsDNA)
DNA 1: GTAATTGCTGTACGAAGGTCAGAATCGCTACCT
DNA 2: AGGTAGCGATTCTGACCTTCGTACAGCAATTAC
In turn, B12 registered a binding signal in series [2] of 0.17 RBA vs reference ERRE.

B13: aromatase site (dsDNA)
DNA 1: CCTGAGACTCTACCAAGGTCAGAAATGCTGCAA
DNA 2: TTGCAGCATTTCTGACCTTGGTAGAGTCTCAGG
In turn, B13 gave a binding signal in series [2] of 0.17 RBA vs reference ERRE.

B14: PgR site 1 (dsDNA)
DNA 1: AAAATTGTTTTGTCTAGGTCATTTGCATTTTCA
DNA 2: TGAAAATGCAAATGACCTAGACAAAACAATTTT
For the molecule B14, the binding signal in series [2] worked out at 0.14 RBA vs reference ERRE.

B15: EGF site (dsDNA)
DNA 1: CAAATAATGGGCTGAAGGTGAACTATCTTTACT
DNA 2: AGTAAAGATAGTTCACCTTCAGCCCATTATTTG
As for B15, in series [2], the binding signal is 0.14 RBA vs reference ERRE.

B16: elk1 site (dsDNA)
DNA 1: CTCCCATCTCACTTAAGGTCAAAGCCAGGGTCC
DNA 2: GGACCCTGGCTTTGACCTTAAGTGAGATGGGAG
For B16, in series [2], the binding signal stood at 0.22 RBA vs reference ERRE.

B17: ERα promoter site (dsDNA)
DNA 1: ATGTTTGGTATGAAAAGGTCACATTTTATATTC
DNA 2: GAATATAAAATGTGACCTTTTCATACCAAACAT
For B17, in series [2], the binding signal turned out to be 0.11 RBA vs reference ERRE.

B18: PgR site 3 (dsDNA)
DNA 1: TCCTAAGGACTGTCAAGGTCATCAAATACAAGG
DNA 2: CCTTGTATTTGATGACCTTGACAGTCCTTAGGA
Turning to B18, in series [2], the binding signal was determined as 1.45 RBA vs reference ERRE.

B19: pS2 site 1 (dsDNA)
DNA 1: TCCCTTCCCCCTGCAAGGTCACGGTGGCCACCC
DNA 2: GGGTGGCCACCGTGACCTTGCAGGGGGAAGGGA
Regarding B19, in series [2], the binding signal was found to be 0.49 RBA vs reference ERRE.

B20: PgR site 2 (dsDNA)
DNA 1: TCCTTGCTAAACCCAAGGTCATAAATCTTTTCT
DNA 2: AGAAAAGATTTATGACCTTGGGTTTAGCAAGGA
On to B20, for which, in series [2], the binding signal was 0.91 RBA vs reference ERRE.

B21: Prolactin site 2 (dsDNA)
DNA 1: CAAATTTGAAACTAAAGGTCACAGGCTGCTTTA
DNA 2: TAAAGCAGCCTGTGACCTTTAGTTTCAAATTTG
In the case of B21, the binding signal in series [2] amounted to 0.33 RBA vs reference ERRE.

B22: pS2 site 2 (dsDNA)
DNA 1: GTAGGACCTGGATTAAGGTCAGGTTGGAGGAGA
DNA 2: TCTCCTCCAACCTGACCTTAATCCAGGTCCTAC
Consider B22, for which, in series [2], the binding signal was 0.12 RBA vs reference ERRE.

B23: cyclin D1 site (dsDNA)
DNA 1: GCGAGGAAAGCGTGAAGGTGATTTCAGTTAATT
DNA 2: AATTAACTGAAATCACCTTCACGCTTTCCTCGC
B23 yielded a binding signal in series [2] of 0.07 RBA vs reference ERRE.
